“Also recorded” adds a separate entry of the source. No end group written: not given here.
What was measured:
Format in all cases: binding
JNK1 = target: T1, JNK1 (Homo sapiens, UniProt P45983); test: GST-fusion pull-down from cell lysates, Flag immunoblot: JNK1; conditions: for binding to JNK1: 5 μg GST-fusion protein on glutathione-Sepharose, Flag-JNK1 lysate, one hour 4° C.; for level of binding to JNK1 compared with JNK2: GST pull-down, Flag immunoblot
T1 construct: expressed in transfected cells
T1 sequence (P45983 1-384 isoform P45983-2): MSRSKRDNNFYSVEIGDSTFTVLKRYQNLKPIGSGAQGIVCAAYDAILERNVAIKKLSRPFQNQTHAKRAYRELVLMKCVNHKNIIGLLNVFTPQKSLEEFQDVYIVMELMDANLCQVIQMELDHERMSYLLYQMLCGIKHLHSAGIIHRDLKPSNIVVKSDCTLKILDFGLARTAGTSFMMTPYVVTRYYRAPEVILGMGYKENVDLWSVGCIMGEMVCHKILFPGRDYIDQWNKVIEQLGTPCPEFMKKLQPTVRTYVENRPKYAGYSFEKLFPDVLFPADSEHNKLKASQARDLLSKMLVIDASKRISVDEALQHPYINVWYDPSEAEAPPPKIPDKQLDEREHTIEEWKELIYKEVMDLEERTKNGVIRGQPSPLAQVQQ
Protocol: (§1) To test whether JIP-1 binding to JNK is also isoform-dependent, a binding assay was utilized. Cell lysates (1 ml in TLB) containing JNK1, JNK2, or p38 MAP kinase, each tagged with the Flag epitope, were incubated with 5 μg GST-fusion proteins pre-bound to 10 μl glutathione-Sepharose. The GST fusion proteins used contain residues 127-202 (SEQ ID NO:15), 203-281 (SEQ ID NO:16), 164-240 (SEQ ID NO:17), or 127-281 (SEQ ID NO:4) of JIP-1. The GST-ATF2 fusion protein contains residues 1-109 of ATF2, and the GST-Jun fusion protein contains residues 1-79 of c-Jun. After incubation for one hour at 4° C. and three washes with TLB, bound proteins were detected by protein immunoblot analysis with the M2 monoclonal antibody, which is specific for the Flag epitope. Dérijard, et al., supra; Sluss et al., supra; Gupta et al., supra. […] This finding is consistent with the results of previous studies. In contrast, when GST-JIP-1 fusion proteins containing residues 127-202 or 127-281 of JIP-1 were tested in the assay, these proteins bound both JNK1 and JNK2.
(§2) The GST-JIP-1 fusion proteins containing various portions of the JIP-1 gene were used to define regions of JIP-1 that are required for JNK interaction. A GST-JIP-1 fusion protein containing residues 127-281 of JIP-1 bound both JNK1 and JNK2.
(§3) To more precisely define the JIP-1 sequence required for JNK binding activity, additional […] fusion proteins were constructed. These fusion proteins contained residues 135-202 (SEQ ID NO:18), 144-202 (SEQ ID NO:19), 154-202 (SEQ ID NO:20), 164-202 (SEQ ID NO:21), 127-143 (SEQ ID NO:22), 127-153 (SEQ ID NO:23), or 127-163 (SEQ ID NO:24) of JIP-1. Proteins containing residues 127-202, 135-202, 144-202, […], and 127-163 all bound both JNK1 and JNK2. Thus, JIP-1 residues 144-163 are important for the interaction of JIP-1 with JNK.

JNK2 = target: T2, JNK2 (Homo sapiens, UniProt P45984); test: GST-fusion pull-down from cell lysates, Flag immunoblot: JNK2; conditions: 5 μg GST-fusion protein on glutathione-Sepharose, Flag-JNK2 lysate, one hour 4° C.
T2 construct: expressed in transfected cells
Protocol: as §1, §2, §3

[1] = target: T3, JIP-1-JNK interaction (JNK1) (Homo sapiens, UniProt P45983); test: Synthetic peptide competition of JIP-1-JNK interaction (GST-JIP-1 127-281 pull-down); conditions: for effect of peptide on JIP-1 binding to JNK1: peptide 0, 4, 8, 16, 32, and 64 μg/ml, GST-JIP-1 (residues 127-281); for inhibition of JIP-1 binding to JNK by peptide: synthetic peptides 64 μg/ml, JNK1 binding to GST-JIP-1 residues 127-281
T3 construct: expressed in transfected cells; GST-JIP-1 from a bacterial pGEX-3X vector
T3 sequence (P45983 1-384 isoform P45983-2): as above
Protocol: The effect of increasing concentrations (0, 4, 8, 16, 32, and 64 μg/ml) of a synthetic peptide corresponding to JIP-1 residues 148-174 (SEQ. ID NO:3) or a control peptide having a scrambled sequence (SEQ ID NO:12) on JIP-1-JNK interaction was examined. Peptides were synthesized using an Applied Biosystems machine. Cell lysates containing Flag epitope-tagged JNK were incubated with GST-JIP-1 (residues 127-281) prebound to glutathione-Sepharose. The beads were washed, and bound proteins were detected by protein immunoblot analysis with a Flag-specific antibody.
The JNK binding domain of JIP-1 contains three amino acids, Lys-155, Thr-159, and Leu-160, that are conserved in the JNK binding domains of ATF2 and c-Jun (FIG. 2). A hydrophobic amino acid, Leu, is found at residue 162 of JIP-1. ATF2 and c-Jun also contain hydrophobic amino acids (ATF2, Phe; c-Jun, Leu) in the position corresponding to residue 162 of JIP-1. To test if these conserved residues are involved in JNK binding, the wild type JIP-1 JBD (residues 148-174) was substituted with glycines in these positions to produce the peptides shown in FIG. 3 (SEQ ID NOs:7-11). The mutant peptides are identical to the wild type peptide except for the indicated glycine substitutions. The binding of JNK1 to GST, as well as a GST fusion protein containing JIP-1 residues 127-281, was examined in the absence and presence of the synthetic peptides (64 μg/ml). A peptide with a scrambled sequence (SEQ ID NO:12) was used as a control. […] In contrast, the control peptide caused no change in JNK binding.
Peptides suspected of having JIP-1 activity can be tested in the JNK binding assay described supra. Peptides are synthesized by methods that are well known to those skilled in the art; for example, using an Applied Biosystems synthesizer. Cell lysates containing Flag epitope-tagged JNK are incubated with GST-JIP-1 (residues 127-281) bound to glutathione-Sepharose, either with or without synthetic peptides (0, 4, 8, 16, 32 or 64 μg/ml), for one hour at 4° C. The beads are washed in TLB, and the bound proteins are detected by protein immunoblot analysis with a Flag-specific antibody, e.g., M2. Synthetic peptides with JIP-1 activity are those which inhibit the interaction of JIP-1 with JNK, as detected in this assay.

GST-JIP-1 residues 154-202: GST fusion protein containing residues 154-202 of JIP-1 (PKRPTTLNLFPQVPRSQDTLNNNSLGKKHSWQDRVSRSSSPLKTGEQTP; also: GST fusion; UniProt Q9WVI9 154-202, looked up, fragment)
binding to JNK1 (JNK1): bound | binding to JNK2 (JNK2): bound

GST-JIP-1 residues 127-163: GST fusion protein containing residues 127-163 of JIP-1 (PKAESNQDPAPRSQGQGPGTGSGDTYRPKRPTTLNLF; also: GST fusion; UniProt Q9WVI9 127-163, looked up, fragment)
binding to JNK1 (JNK1): bound | binding to JNK2 (JNK2): bound

GST-JIP-1 residues 144-202: GST fusion protein containing residues 144-202 of JIP-1 (PGTGSGDTYRPKRPTTLNLFPQVPRSQDTLNNNSLGKKHSWQDRVSRSSSPLKTGEQTP; also: GST fusion; UniProt Q9WVI9 144-202, looked up, fragment)
binding to JNK1 (JNK1): bound | binding to JNK2 (JNK2): bound

SEQ ID NO:12: control peptide having a scrambled sequence (NSLGTDDTQYSRRPPKVRQPNPTFTLL) [reference compound]
effect of peptide on JIP-1 binding to JNK1 [1]: no effect | inhibition of JIP-1 binding to JNK by peptide [1]: no change

SGDTYRPKRPTTLNLFPQVPRSQDTLN [JIP-1 residues 148-174, synthetic peptide corresponding to JIP-1 residues 148-174, core of the JBD]
effect of peptide on JIP-1 binding to JNK1 [1]: dose-dependent decrease | inhibition of JIP-1 binding to JNK by peptide [1]: dose-dependent inhibition

B1: GST-JIP-1 residues 127-202: GST fusion protein containing residues 127-202 of JIP-1 (amino terminal region) (protein, UniProt Q9WVI9 127-202, looked up, fragment)
chain: PKAESNQDPAPRSQGQGPGTGSGDTYRPKRPTTLNLFPQVPRSQDTLNNNSLGKKHSWQDRVSRSSSPLKTGEQTP
modifications: GST fusion
binding to JNK1 (JNK1): bound; also recorded: JNK binding activity was observed | binding to JNK2 (JNK2): bound; also recorded: JNK binding activity was observed

B2: GST-JIP-1 residues 127-281: GST fusion protein containing residues 127-281 of JIP-1 (protein)
chain: PKAESNQDPAPRSQGQGPGTGSGDTYRPKRPTTLNLFPQVPRSQDTLNNNSLGKKHSWQDRVSRSSSPLKTGEQTPPHEHICLSDELPPQGSPVPTQDRGTSTDSPCRRSAATQMAPPSGPPATAPGGRGHSHRDRIHYQADVRLEATEEIYLTP
modifications: left off: a dimerising Fc or GST
binding to JNK1 (JNK1): bound | binding to JNK2 (JNK2): bound

B3: GST-ATF2: GST fusion protein containing residues 1-109 of ATF2 (protein)
chain: MKFKLHVNSARQYKDLWNMSDDKPFLCTAPGCGQRFTNEDHLAVHKHKHEMTLKFGPARNDSVIVADQTPTPTRFLKNCEEVGLFNELASPFENEFKKASEDDIKKMPL
modifications: left off: a dimerising Fc or GST
notes: GST fusion protein containing residues 1-109 of ATF2
level of binding to JNK1 compared with JNK2 (JNK1): greater than binding to JNK2

B4: GST-Jun: GST fusion protein containing residues 1-79 of c-Jun (protein)
chain: MTAKMETTFYDDALNASFLPSESGPYGYSNPKILKQSMTLNLADPVGSLKPHLRAKNSDLLTSPDVGLLKLASPELERL
modifications: left off: a dimerising Fc or GST
notes: GST fusion protein containing residues 1-79 of c-Jun
level of binding to JNK1 compared with JNK2 (JNK1): greater than binding to JNK2

B5: GST-JIP-1 residues 164-240: GST fusion protein containing residues 164-240 of JIP-1 (central region) (protein, UniProt Q9WVI9 164-240, looked up, fragment)
chain: PQVPRSQDTLNNNSLGKKHSWQDRVSRSSSPLKTGEQTPPHEHICLSDELPPQGSPVPTQDRGTSTDSPCRRSAATQ
modifications: GST fusion
binding to JNK1 (JNK1): No JNK binding was detected | binding to JNK2 (JNK2): No JNK binding was detected

B6: GST-JIP-1 residues 203-281: GST fusion protein containing residues 203-281 of JIP-1 (carboxy terminal region) (protein, UniProt Q9WVI9 203-281, looked up, fragment)
chain: PHEHICLSDELPPQGSPVPTQDRGTSTDSPCRRSAATQMAPPSGPPATAPGGRGHSHRDRIHYQADVRLEATEEIYLTP
modifications: GST fusion
binding to JNK1 (JNK1): No JNK binding was detected | binding to JNK2 (JNK2): No JNK binding was detected

B7: GST-JIP-1 residues 135-202: GST fusion protein containing residues 135-202 of JIP-1 (protein, UniProt Q9WVI9 135-202, looked up, fragment)
chain: PAPRSQGQGPGTGSGDTYRPKRPTTLNLFPQVPRSQDTLNNNSLGKKHSWQDRVSRSSSPLKTGEQTP
modifications: GST fusion
binding to JNK1 (JNK1): bound | binding to JNK2 (JNK2): bound

— US7838294B2, “Inhibitors of the JNK signal transduction pathway and methods of use” (University of Massachusetts, priority 1997, dated 2010)
